B1: TPR t1 (parent)
chain: GACCAAUCUGCCCUCAGAGCUCGAGAACAUCUUCGGAUGCAGAGGAGGCAGGCUUCGGUGGCGCGAUAGCGCCAACGUCCUCAACCUCCAAUGCAUCCCACCACAUGAUGAUGCCUGAAGAGCCUUGGUUUUUUG

Variants of: B1
Assay: polymerase ribozyme fitness, log enrichment relative to wild type (log ratio); higher = more active; in vitro selection for triplet polymerase activity
How it was run: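 Both subunits of a heterodimeric triplet polymerase ribozyme were given their own mutant library, built by PCR and transcribed. Each library was annealed with a biotinylated primer, the partner subunit and triplets, incubated frozen at −7 °C, and its extended constructs gel-excised, captured on streptavidin beads and amplified by RT-PCR, all in one round done in triplicate. Fitness is the logarithm of genotype enrichment relative to wild-type enrichment, with replicates averaged by inverse-variance weighting. That logarithm is base 2, and Illumina-sequenced genotypes needed ≥10 input reads and ≥1 read per output.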

Variant | polymerase ribozyme fitness (log ratio)
G51U G127A | -4.52
A5C G48A C82G | -1.18
A26U G45A U54A | -4.06
C20A G58U G71U C89G | -5.13
C3U G48C C82G | -1.66
C12A G120C A121U | 1.87
G10A C73U U116C | -1.59
C12U A37U C85U G93C G120A | 0.532
A2U C62U G117U | -5.02
C79A C123U | 0.304
C53A G60U | -0.129
C22A G120U | -4.24
C12A C86A U112A | 0.277
C3U G93C U112A C123G | -1.14
C11U A29C | -3.12
G47U G128U | -2.73
C3U G44C G60A | -0.897
A41C G58A C72U | -0.757
G71U A103G | -5.01
A50C A66C A100U | -3.95
G69A C82G | -3.32

Variant | polymerase ribozyme fitness (log ratio)
C12U G63U | -0.968
A50G U54C G63U C88U U130G | -2.9
U7C C56A G71U A90C | -3.95
C79G A121U | 0.316
A27G C28A G52U | -5.13
C8U G71A C115U | -1.94
A24G A119G A121U | 1.12
G10U C34G C102U | -6.42
C56G C101U G120A | -0.227
C8A C79U C98G C114U | -6.7
C8G U106G C114U | -1.28
A66C A90G C114G | -4.05
C85U A100C | -1.76
C64U A111U | -3.24
G61U C82G A91C U112C | 0.876
A83G C86G G127U U132C | -2.25
G39U C40G U106A U109A G120C | -5.48
A6C U9A C15G G45A C104A C124G | -3.65
C3U A50C A74C U96G | -1.84
G10U A37C G113U U129A | -5.04
U14C | -1.23

Variant | polymerase ribozyme fitness (log ratio)
G48U C73G A95G | -1.55
A50U G63A C124G | -0.873
A5G C13A G61A | -1.98
C53G G58C C62A C85U G113A | -2.93
G36A G42A C70U C72U | -4.5
C94U G120C | 0.688
C13G G35C C64U A90G G93A C97A C124A | -5.83
G42U A46U U96G | -2.26
G61A U116G G128C | -4.66
G71C G113A G128A | -3.16
C3A C11G G48U C114A | -2.07
A2C C20G G60A U112C | -4.64
C31U A68G | -6.34
G63A G69U C79U | -0.72
G10C A37U C72A | -0.966
A46G U54G | 0.0807
C15G C88G | -3.07
C13U U32G U87C | -7.09
C28G G93A | -3.77
G44C G52A G127A | -3.02
C34G U106A | -4.72

Variant | polymerase ribozyme fitness (log ratio)
G36A C98U | -3.49
G42A A74U A119G | -1.81
C12U G60C U112G | 0.137
C40U C73G C123G U132A | 0.0747
G60A A103C A111C | -4.91
U78A U96C | -0.338
C40U C56G C70U | -2.46
C11G A16U G58C A83C C89U U131A | -3.15
C8U G44A C56A | -0.314
G17U U59C A108G A118U | -5.03
G48U C70A | -2.08
G10A U59C A66C A68G U106G A121U | -4.4
A29U C79A | -3.06
C8A C28A C72U C123U | -2.54
G44U G61U A111U | -3.66
G60A G93A C99U | -5.15
C72A U112C | 1.48
A6G A18G U129A U133A G135U | -5.44
A5U C49G G51A A74U C82A | -4.76
C11U G52A U92G C102A G122U | -6.57
